PMC9555226, “Microreactor equipped with naturally acid-resistant histidine ammonia lyase from an extremophile” (Materials advances, 2022)

Substrate: N[C@@H](Cc1c[nH]cn1)C(=O)O
Experiment: purified protein
Assay type: biochemical, Thermoplasma acidophilum
Settings: 37 °C, pH 7.4, buffer A, free enzyme

B1: TaHAL (Thermoplasma acidophilum histidine ammonia lyase) (Thermoplasma acidophilum DSM 1728) (protein)
chain: MIEIDGRSLRVEDVYAVAVEYDRVSISDDTLKAVEEKHEAFLKLINSGKTVYGVNTGFGSLLNVHIERDQEIELQKNLIRSHSSGVGDYLENRYVRAIMAVRLNSLAAGYSAVSADLLNMMVEMLNRDVIPAVPKYGSVGASGDLAPLAHIGLAMMGEGKAFFEGRLMDSARALEKAGLKPYQFKEKEGVALINGTSFMSGILSIAVMDAHDILENAIRSALLSFEALGGTSKAFTPWILGARPHLGQVAIGNRFREYLTGSDIVKRADSVKVQDAYTLRCIPQVYGSVADVIDYVENVLSVEINSATDNPLFNGEEVVSGGNFHGEPVALAADFLAIALTDLGNMVERRIARLVDTNLSGLPPFLTPDSGLNSGYMIPQYTAAALCNRNKVLAYPSSADTIPTSANQEDHVSMGATGSLKLLEIIDNVRYIIAIEYLLGSQALEFTDKGMSPSTRKIYEKIREKVEKLDHDRPPSFDIETIRKMMDKKEFISALP
notes: E. coli BL21(DE3), codon-optimized gene, pET28a; N-terminal His-SUMO tag cleaved with ULP1; ~55 kDa; homotetramer with MIO
Km: 45 ± 20 µM
kcat: 1.01 ± 0.08 s⁻¹
kcat/Km: 22400 ± 4000 M⁻¹ s⁻¹
